Laboratory results: the RNAGym collection of RNA variant scans (doi:10.1021/acssynbio.7b00057)

B1: Pistol ribozyme (parent)
chain: GGGUCGUUGUUCCAUAAUCGCGUGGAUAUGGCACGCAAGUUUCUACCGGGCACCGUAAAUGUCCGACUGGAGCCGUUCGGGCGGCUAUAAACAGACCUCAGGCCCGAAGCGUGGCGGCACCUGCCGCCGGUGGUAAAAAAGAUCGGAAGAGCACACGUCU

Variants of: B1
Assay: aptazyme ON/OFF ratio, guanine; higher = stronger switching; co-transcriptional cleavage with and without guanine

Row | Variant | aptazyme ON/OFF ratio
1 | GGGUCGCCCUAGCAUAAUCGCGUGGAUAUGGCACGCAAGUUUCUACCGGGCACCGUAAAUGUCCGACUGGAGCCGUUCGGGCGGCUAUAAACAGACCUCAGGCCCGAAGCGUGGCGGCACCUGCCGCCGGUGGUAAAAAAGAUCGGAAGAGCACACGUCU [U7C U8C G9C U11A C12G] | 1.14
2 | GGGUCGCCCUAACAUAAUCGCGUGGAUAUGGCACGCAAGUUUCUACCGGGCACCGUAAAUGUCCGACUGGAGCCGUUCGGGCGGCUAUAAACAGACCUCAGGCCCGAAGCGUGGCGGCACCUGCCGCCGGUGGUAAAAAAGAUCGGAAGAGCACACGUCU [U7C U8C G9C U11A C12A] | 1.23
3 | GGGUCGCCCUAUCAUAAUCGCGUGGAUAUGGCACGCAAGUUUCUACCGGGCACCGUAAAUGUCCGACUGGAGCCGUUCGGGCGGCUAUAAACAGACCUCAGGCCCGAAGCGUGGCGGCACCUGCCGCCGGUGGUAAAAAAGAUCGGAAGAGCACACGUCU [U7C U8C G9C U11A C12U] | 1.14
4 | GGGUCGCCCGGGAAUAAUCGCGUGGAUAUGGCACGCAAGUUUCUACCGGGCACCGUAAAUGUCCGACUGGAGCCGUUCGGGCGGCUAUAAACAGACCUCAGGCCCGAAGCGUGGCGGCACCUGCCGCCGGUGGUAAAAAAGAUCGGAAGAGCACACGUCU [U7C U8C G9C U10G U11G C12G C13A] | 1.11
5 | GGGUCGCCCGGGUAUAAUCGCGUGGAUAUGGCACGCAAGUUUCUACCGGGCACCGUAAAUGUCCGACUGGAGCCGUUCGGGCGGCUAUAAACAGACCUCAGGCCCGAAGCGUGGCGGCACCUGCCGCCGGUGGUAAAAAAGAUCGGAAGAGCACACGUCU [U7C U8C G9C U10G U11G C12G C13U] | 1.05
6 | GGGUCGCCCGGGGAUAAUCGCGUGGAUAUGGCACGCAAGUUUCUACCGGGCACCGUAAAUGUCCGACUGGAGCCGUUCGGGCGGCUAUAAACAGACCUCAGGCCCGAAGCGUGGCGGCACCUGCCGCCGGUGGUAAAAAAGAUCGGAAGAGCACACGUCU [U7C U8C G9C U10G U11G C12G C13G] | 1.09
7 | GGGUCGCCCGGCAAUAAUCGCGUGGAUAUGGCACGCAAGUUUCUACCGGGCACCGUAAAUGUCCGACUGGAGCCGUUCGGGCGGCUAUAAACAGACCUCAGGCCCGAAGCGUGGCGGCACCUGCCGCCGGUGGUAAAAAAGAUCGGAAGAGCACACGUCU [U7C U8C G9C U10G U11G C13A] | 1.06
8 | GGGUCGCCCGGCUAUAAUCGCGUGGAUAUGGCACGCAAGUUUCUACCGGGCACCGUAAAUGUCCGACUGGAGCCGUUCGGGCGGCUAUAAACAGACCUCAGGCCCGAAGCGUGGCGGCACCUGCCGCCGGUGGUAAAAAAGAUCGGAAGAGCACACGUCU [U7C U8C G9C U10G U11G C13U] | 1.1
9 | GGGUCGCCCGGCGAUAAUCGCGUGGAUAUGGCACGCAAGUUUCUACCGGGCACCGUAAAUGUCCGACUGGAGCCGUUCGGGCGGCUAUAAACAGACCUCAGGCCCGAAGCGUGGCGGCACCUGCCGCCGGUGGUAAAAAAGAUCGGAAGAGCACACGUCU [U7C U8C G9C U10G U11G C13G] | 1.08
10 | GGGUCGCCCUAUAAUAAUCGCGUGGAUAUGGCACGCAAGUUUCUACCGGGCACCGUAAAUGUCCGACUGGAGCCGUUCGGGCGGCUAUAAACAGACCUCAGGCCCGAAGCGUGGCGGCACCUGCCGCCGGUGGUAAAAAAGAUCGGAAGAGCACACGUCU [U7C U8C G9C U11A C12U C13A] | 1.06
11 | GGGUCGCCCUAUUAUAAUCGCGUGGAUAUGGCACGCAAGUUUCUACCGGGCACCGUAAAUGUCCGACUGGAGCCGUUCGGGCGGCUAUAAACAGACCUCAGGCCCGAAGCGUGGCGGCACCUGCCGCCGGUGGUAAAAAAGAUCGGAAGAGCACACGUCU [U7C U8C G9C U11A C12U C13U] | 1.11
12 | GGGUCGCCCUAUGAUAAUCGCGUGGAUAUGGCACGCAAGUUUCUACCGGGCACCGUAAAUGUCCGACUGGAGCCGUUCGGGCGGCUAUAAACAGACCUCAGGCCCGAAGCGUGGCGGCACCUGCCGCCGGUGGUAAAAAAGAUCGGAAGAGCACACGUCU [U7C U8C G9C U11A C12U C13G] | 1.16
13 | GGGUCGCCCGGAAAUAAUCGCGUGGAUAUGGCACGCAAGUUUCUACCGGGCACCGUAAAUGUCCGACUGGAGCCGUUCGGGCGGCUAUAAACAGACCUCAGGCCCGAAGCGUGGCGGCACCUGCCGCCGGUGGUAAAAAAGAUCGGAAGAGCACACGUCU [U7C U8C G9C U10G U11G C12A C13A] | 1.08
14 | GGGUCGCCCGGAUAUAAUCGCGUGGAUAUGGCACGCAAGUUUCUACCGGGCACCGUAAAUGUCCGACUGGAGCCGUUCGGGCGGCUAUAAACAGACCUCAGGCCCGAAGCGUGGCGGCACCUGCCGCCGGUGGUAAAAAAGAUCGGAAGAGCACACGUCU [U7C U8C G9C U10G U11G C12A C13U] | 1.09
15 | GGGUCGCCCGGAGAUAAUCGCGUGGAUAUGGCACGCAAGUUUCUACCGGGCACCGUAAAUGUCCGACUGGAGCCGUUCGGGCGGCUAUAAACAGACCUCAGGCCCGAAGCGUGGCGGCACCUGCCGCCGGUGGUAAAAAAGAUCGGAAGAGCACACGUCU [U7C U8C G9C U10G U11G C12A C13G] | 1.07
16 | GGGUCGCCCGCCUAUAAUCGCGUGGAUAUGGCACGCAAGUUUCUACCGGGCACCGUAAAUGUCCGACUGGAGCCGUUCGGGCGGCUAUAAACAGACCUCAGGCCCGAAGCGUGGCGGCACCUGCCGCCGGUGGUAAAAAAGAUCGGAAGAGCACACGUCU [U7C U8C G9C U10G U11C C13U] | 1.08
17 | GGGUCGCCCUACUAUAAUCGCGUGGAUAUGGCACGCAAGUUUCUACCGGGCACCGUAAAUGUCCGACUGGAGCCGUUCGGGCGGCUAUAAACAGACCUCAGGCCCGAAGCGUGGCGGCACCUGCCGCCGGUGGUAAAAAAGAUCGGAAGAGCACACGUCU [U7C U8C G9C U11A C13U] | 1.08
18 | GGGUCGCCCUACGAUAAUCGCGUGGAUAUGGCACGCAAGUUUCUACCGGGCACCGUAAAUGUCCGACUGGAGCCGUUCGGGCGGCUAUAAACAGACCUCAGGCCCGAAGCGUGGCGGCACCUGCCGCCGGUGGUAAAAAAGAUCGGAAGAGCACACGUCU [U7C U8C G9C U11A C13G] | 1.09

Row | Variant | aptazyme ON/OFF ratio
19 | GGGUCGCCCUACAAUAAUCGCGUGGAUAUGGCACGCAAGUUUCUACCGGGCACCGUAAAUGUCCGACUGGAGCCGUUCGGGCGGCUAUAAACAGACCUCAGGCCCGAAGCGUGGCGGCACCUGCCGCCGGUGGUAAAAAAGAUCGGAAGAGCACACGUCU [U7C U8C G9C U11A C13A] | 1.13
20 | GGGUCGCCCUAAUAUAAUCGCGUGGAUAUGGCACGCAAGUUUCUACCGGGCACCGUAAAUGUCCGACUGGAGCCGUUCGGGCGGCUAUAAACAGACCUCAGGCCCGAAGCGUGGCGGCACCUGCCGCCGGUGGUAAAAAAGAUCGGAAGAGCACACGUCU [U7C U8C G9C U11A C12A C13U] | 1.13
21 | GGGUCGCCCUAAGAUAAUCGCGUGGAUAUGGCACGCAAGUUUCUACCGGGCACCGUAAAUGUCCGACUGGAGCCGUUCGGGCGGCUAUAAACAGACCUCAGGCCCGAAGCGUGGCGGCACCUGCCGCCGGUGGUAAAAAAGAUCGGAAGAGCACACGUCU [U7C U8C G9C U11A C12A C13G] | 1.14
22 | GGGUCGCCCUAAAAUAAUCGCGUGGAUAUGGCACGCAAGUUUCUACCGGGCACCGUAAAUGUCCGACUGGAGCCGUUCGGGCGGCUAUAAACAGACCUCAGGCCCGAAGCGUGGCGGCACCUGCCGCCGGUGGUAAAAAAGAUCGGAAGAGCACACGUCU [U7C U8C G9C U11A C12A C13A] | 1.1
23 | GGGUCGCCCUCACAUAAUCGCGUGGAUAUGGCACGCAAGUUUCUACCGGGCACCGUAAAUGUCCGACUGGAGCCGUUCGGGCGGCUAUAAACAGACCUCAGGCCCGAAGCGUGGCGGCACCUGCCGCCGGUGGUAAAAAAGAUCGGAAGAGCACACGUCU [U7C U8C G9C U11C C12A] | 1.22
24 | GGGUCGCCCGGCCAUAAUCGCGUGGAUAUGGCACGCAAGUUUCUACCGGGCACCGUAAAUGUCCGACUGGAGCCGUUCGGGCGGCUAUAAACAGACCUCAGGCCCGAAGCGUGGCGGCACCUGCCGCCGGUGGUAAAAAAGAUCGGAAGAGCACACGUCU [U7C U8C G9C U10G U11G] | 1.09
25 | GGGUCGCCCGGGCAUAAUCGCGUGGAUAUGGCACGCAAGUUUCUACCGGGCACCGUAAAUGUCCGACUGGAGCCGUUCGGGCGGCUAUAAACAGACCUCAGGCCCGAAGCGUGGCGGCACCUGCCGCCGGUGGUAAAAAAGAUCGGAAGAGCACACGUCU [U7C U8C G9C U10G U11G C12G] | 1.14
26 | GGGUCGCCCGGACAUAAUCGCGUGGAUAUGGCACGCAAGUUUCUACCGGGCACCGUAAAUGUCCGACUGGAGCCGUUCGGGCGGCUAUAAACAGACCUCAGGCCCGAAGCGUGGCGGCACCUGCCGCCGGUGGUAAAAAAGAUCGGAAGAGCACACGUCU [U7C U8C G9C U10G U11G C12A] | 1.11
27 | GGGUCGCCCGGUCAUAAUCGCGUGGAUAUGGCACGCAAGUUUCUACCGGGCACCGUAAAUGUCCGACUGGAGCCGUUCGGGCGGCUAUAAACAGACCUCAGGCCCGAAGCGUGGCGGCACCUGCCGCCGGUGGUAAAAAAGAUCGGAAGAGCACACGUCU [U7C U8C G9C U10G U11G C12U] | 1.11
28 | GGGUCGCCCGGUAAUAAUCGCGUGGAUAUGGCACGCAAGUUUCUACCGGGCACCGUAAAUGUCCGACUGGAGCCGUUCGGGCGGCUAUAAACAGACCUCAGGCCCGAAGCGUGGCGGCACCUGCCGCCGGUGGUAAAAAAGAUCGGAAGAGCACACGUCU [U7C U8C G9C U10G U11G C12U C13A] | 1.08
29 | GGGUCGCCCGGUUAUAAUCGCGUGGAUAUGGCACGCAAGUUUCUACCGGGCACCGUAAAUGUCCGACUGGAGCCGUUCGGGCGGCUAUAAACAGACCUCAGGCCCGAAGCGUGGCGGCACCUGCCGCCGGUGGUAAAAAAGAUCGGAAGAGCACACGUCU [U7C U8C G9C U10G U11G C12U C13U] | 1.06
30 | GGGUCGCCCGGUGAUAAUCGCGUGGAUAUGGCACGCAAGUUUCUACCGGGCACCGUAAAUGUCCGACUGGAGCCGUUCGGGCGGCUAUAAACAGACCUCAGGCCCGAAGCGUGGCGGCACCUGCCGCCGGUGGUAAAAAAGAUCGGAAGAGCACACGUCU [U7C U8C G9C U10G U11G C12U C13G] | 1.09
31 | GGGUCGCCCUCCCAUAAUCGCGUGGAUAUGGCACGCAAGUUUCUACCGGGCACCGUAAAUGUCCGACUGGAGCCGUUCGGGCGGCUAUAAACAGACCUCAGGCCCGAAGCGUGGCGGCACCUGCCGCCGGUGGUAAAAAAGAUCGGAAGAGCACACGUCU [U7C U8C G9C U11C] | 1.43
32 | GGGUCGCCCUACCAUAAUCGCGUGGAUAUGGCACGCAAGUUUCUACCGGGCACCGUAAAUGUCCGACUGGAGCCGUUCGGGCGGCUAUAAACAGACCUCAGGCCCGAAGCGUGGCGGCACCUGCCGCCGGUGGUAAAAAAGAUCGGAAGAGCACACGUCU [U7C U8C G9C U11A] | 1.71
33 | GGGUCGCCCUAGAAUAAUCGCGUGGAUAUGGCACGCAAGUUUCUACCGGGCACCGUAAAUGUCCGACUGGAGCCGUUCGGGCGGCUAUAAACAGACCUCAGGCCCGAAGCGUGGCGGCACCUGCCGCCGGUGGUAAAAAAGAUCGGAAGAGCACACGUCU [U7C U8C G9C U11A C12G C13A] | 1.07
34 | GGGUCGCCCUAGUAUAAUCGCGUGGAUAUGGCACGCAAGUUUCUACCGGGCACCGUAAAUGUCCGACUGGAGCCGUUCGGGCGGCUAUAAACAGACCUCAGGCCCGAAGCGUGGCGGCACCUGCCGCCGGUGGUAAAAAAGAUCGGAAGAGCACACGUCU [U7C U8C G9C U11A C12G C13U] | 1.03
35 | GGGUCGCCCUAGGAUAAUCGCGUGGAUAUGGCACGCAAGUUUCUACCGGGCACCGUAAAUGUCCGACUGGAGCCGUUCGGGCGGCUAUAAACAGACCUCAGGCCCGAAGCGUGGCGGCACCUGCCGCCGGUGGUAAAAAAGAUCGGAAGAGCACACGUCU [U7C U8C G9C U11A C12G C13G] | 1.07
36 | GGGUCGCCCUCAAAUAAUCGCGUGGAUAUGGCACGCAAGUUUCUACCGGGCACCGUAAAUGUCCGACUGGAGCCGUUCGGGCGGCUAUAAACAGACCUCAGGCCCGAAGCGUGGCGGCACCUGCCGCCGGUGGUAAAAAAGAUCGGAAGAGCACACGUCU [U7C U8C G9C U11C C12A C13A] | 1.16
